Starred links: 1 amine or outer side, 2 acyl side, 3 side chain; linkers in the order of their positions; H or OH if unused. Positions of bridges follow the written chain, without caps; N, C: chain ends. Non-standard residues stand in square brackets, D forms with d. *: point of attachment. FITC = O=C1OC2(c3ccc(O)cc3Oc3cc(O)ccc32)c2ccc(NC(=S)*)cc21; S7 = C[C@@](CCCCCC=[*:3])(N[*:1])C(=O)[*:2]; R8 = C=CCCCCCC[C@@](C)(N)C(=O)O; Cba = N[C@@H](CC1CCC1)C(=O)O; S5 = C=CCCC[C@](C)(N)C(=O)O; Ahx = NCCCCCC(=O)O

T2 sequence (Q00987 1-138): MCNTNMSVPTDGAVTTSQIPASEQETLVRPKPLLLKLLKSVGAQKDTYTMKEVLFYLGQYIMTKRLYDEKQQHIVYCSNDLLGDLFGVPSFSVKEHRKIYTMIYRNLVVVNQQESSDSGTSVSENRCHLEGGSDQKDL

For one assay, the target named is T1, MDMX (1–134) (UniProt O15151 1-134).
T1 construct: MDMX, residues 1-134; the methods may stand in the ESI; also called Mouse double minute X homolog
T1 sequence (looked up): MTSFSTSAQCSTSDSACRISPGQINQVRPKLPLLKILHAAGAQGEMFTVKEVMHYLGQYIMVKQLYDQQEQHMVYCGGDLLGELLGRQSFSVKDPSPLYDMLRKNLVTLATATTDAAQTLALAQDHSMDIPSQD
As to the kind of experiment: fluorescence polarisation; direct binding; 10 nM FITC-labelled peptide incubated with varying concentrations of protein (10 μM to 9 pM), FP read after 3 h; n = 3. Particulars: both partners purified.
For the molecule {FITC-Ahx}-LTF[R8]EYWAQ[Cba][S5]SAA-NH2 (staple 4-11; also: cis alkene isomer) [cis-2FITC (ATSP-7041)], the Kd was found to be 8.42 ± 0.09 nM.
{FITC-Ahx}-LTA[S7]EYWAQ[Cba][S7]SAA-NH2 (staple 4-11) [5FITC] gave a Kd of 1120 ± 252 nM.
The same measure, in the same setting: then {FITC-Ahx}-LTF[R8]EYWAQ[Cba][S5]SAA-NH2 (staple 4-11; also: trans alkene isomer) [trans-3FITC (ATSP-7041)], with 7.86 ± 0.15 nM; and {FITC-Ahx}-LTF[S7]EYWAQ[Cba][S7]SAA-NH2 (bridge 4-11; not fully specified (bridges)) [4FITC], with 203 ± 54 nM.

The next assay concerns the target T2, MDM2 (1–138) (UniProt Q00987 1-138).
T2 construct: MDM2, residues 1-138; the methods may stand in the ESI; also called Mouse double minute 2 homolog
The description is as above. As to conditions: both partners purified.
{FITC-Ahx}-LTA[S7]EYWAQ[Cba][S7]SAA-NH2 (staple 4-11) [5FITC] displayed a Kd of 3680 ± 151 nM.
The molecule {FITC-Ahx}-LTF[S7]EYWAQ[Cba][S7]SAA-NH2 (bridge 4-11; not fully specified (bridges)) [4FITC] showed a Kd of 1.39 ± 0.08 nM.

(Values after PMC11741006 (RSC Chemical Biology, 2025).)
